Measured values reported in paper PMC3746776 (Journal of molecular biology, 2013).

B1: bacteriophage T4 gp14, purified (natural protein)
chain: MATYDKNLFAKLENRTGYSQTNETEILNPYVNFNHYKNSQILADVLVAESIQMRGVECYYVPREYVSPDLIFGEDLKNKFTKAWKFAAYLNSFEGYEGAKSFFSNFGMQVQDEVTLSINPNLFKHQVNGKEPKEGDLIYFPMDNSLFEINWVEPYDPFYQLGQNAIRKITAGKFIYSGEEINPVLQKNEGINIPEFSELELNAVRNLNGIHDINIDQYAEVDQINSEAKEYVEPYVVVNNRGKSFESSPFDNDFMD
B2: gp15 C-terminal truncation mutant (residues 1-261) (domain or fragment, bacteriophage T4, UniProt P11112 1-261, looked up)
chain: MFGYFYNSSFRRYATLMGDLFSNIQIKRQLESGDKFIRVPITYASKEHFMMKLNKWTSINSQEDVAKVETILPRINLHLVDFSYNAPFKTNILNQNLLQKGATSVVSQYNPSPIKMIYELSIFTRYEDDMFQIVEQILPYFQPHFNTTMYEQFGNDIPFKRDIKIVLMSAAIDEAIDGDNLSRRRIEWSLTFEVNGWMYPPVDDAEGLIRTTYTDFHANTRDLPDGEGVFESVDSEVVPRDIDPEDWDGTVKQTFTSNVNR

Columns and labels:
[1] = target: purified phage T4 heads (bacteriophage T4) (UniProt P13334); assay: co-sedimentation
Sequence of purified phage T4 heads (bacteriophage T4) (P13334 whole entry, looked up): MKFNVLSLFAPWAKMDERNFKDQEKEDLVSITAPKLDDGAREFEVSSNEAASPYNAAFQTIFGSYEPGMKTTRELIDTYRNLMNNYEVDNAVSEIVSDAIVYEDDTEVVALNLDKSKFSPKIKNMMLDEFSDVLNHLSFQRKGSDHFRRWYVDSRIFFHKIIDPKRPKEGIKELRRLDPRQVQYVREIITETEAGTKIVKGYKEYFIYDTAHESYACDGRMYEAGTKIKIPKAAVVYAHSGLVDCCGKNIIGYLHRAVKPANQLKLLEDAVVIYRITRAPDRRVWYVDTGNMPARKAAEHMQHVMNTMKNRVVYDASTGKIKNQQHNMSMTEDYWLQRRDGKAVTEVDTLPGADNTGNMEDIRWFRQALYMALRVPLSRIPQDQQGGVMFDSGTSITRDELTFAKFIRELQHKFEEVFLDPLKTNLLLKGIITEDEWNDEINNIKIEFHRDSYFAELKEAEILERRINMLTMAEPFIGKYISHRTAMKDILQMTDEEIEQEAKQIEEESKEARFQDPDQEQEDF

crystal structure = target: the molecule itself; assay: crystal structure

Row | Binder | stoichiometry N (copies per head) [1] | stoichiometry N (crystal structure)
1 | B1 | 6 | –
2 | B2 | – | 6
